Values of other authors in patent publication US20100183645A1, “ACTIVE OR PASSIVE IMMUNIZATION AGAINST PROAPOPTOTIC NEUROTROPHINS FOR THE TREATMENT AND/OR PREVENTION OF NEURODEGENERATIVE DISEASES” (INSTITUT PASTEUR, priority 2003, published 2010).
No end group written: not given here.

Target: T1, p75NTR (Homo sapiens, UniProt P08138)
T1 sequence (P08138 29-427): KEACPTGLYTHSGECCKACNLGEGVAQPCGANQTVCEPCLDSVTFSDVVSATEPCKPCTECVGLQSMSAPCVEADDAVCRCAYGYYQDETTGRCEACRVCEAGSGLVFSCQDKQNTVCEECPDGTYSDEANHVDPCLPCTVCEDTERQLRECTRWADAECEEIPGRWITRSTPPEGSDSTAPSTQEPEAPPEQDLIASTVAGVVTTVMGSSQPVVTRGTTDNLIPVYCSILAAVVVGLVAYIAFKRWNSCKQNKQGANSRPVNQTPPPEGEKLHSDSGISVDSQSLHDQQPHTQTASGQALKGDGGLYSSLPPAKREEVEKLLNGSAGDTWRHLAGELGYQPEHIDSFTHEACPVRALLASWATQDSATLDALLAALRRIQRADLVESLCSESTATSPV
Conditions: Beglova et al, 2000; Saragovi et al, 2000, 2002; cited from earlier work

## short cyclic peptide derived from an exposed loop of mature NGF (residues C30-C35): short cyclic peptide from an exposed loop of mature NGF, involved in NGF-p75NTR interactions (DIKGKE; also: cyclic peptide, ring closure not given here; UniProt P01139 151-156, looked up, fragment)
  Blocking of neurotrophin binding to p75NTR: specifically block
